Target: recombinant His-tag PCNA (proliferating cell nuclear antigen) (human, UniProt P12004 1-261)
Assay: SPR

Sequence of recombinant His-tag PCNA (proliferating cell nuclear antigen) (P12004 whole entry): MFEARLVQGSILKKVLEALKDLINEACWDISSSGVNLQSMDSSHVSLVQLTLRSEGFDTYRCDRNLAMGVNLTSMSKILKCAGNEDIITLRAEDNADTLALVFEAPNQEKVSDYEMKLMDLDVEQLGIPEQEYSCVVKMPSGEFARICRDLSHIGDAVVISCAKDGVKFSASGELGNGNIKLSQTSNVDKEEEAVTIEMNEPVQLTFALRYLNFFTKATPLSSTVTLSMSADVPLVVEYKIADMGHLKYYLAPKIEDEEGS

Kd: 3.4 nM
B1: NKp44-Ig (Fc fusion, UniProt O95944 22-192, looked up)
chain: QSKAQVLQSVAGQTLTVRCQYPPTGSLYEKKGWCKEASALVCIRLVTSSKPRTMAWTSRFTIWDDPDAGFFTVTMTDLREEDSGHYWCRIYRPSDNSVSKSVRFYLVVSPASASTQTSWTPRDLVSSQTQTQSCVPPTAGARQAPESPSTIPVPSQPQNSTLRPGPAAPIA

Reference: paper PMC3269963 (Journal of Immunology (Baltimore, Md. : 1950), 2011)
